According to patent US11564995B2, “Peptide-nanoparticle conjugates” (Wisconsin Alumni Research Foundation, priority 2018, dated 2023):
Entries after “also recorded” stand apart in the source; their conditions may differ. Residues, ends and D or L forms follow the SMILES beside them. No end group written: not given here.

Tests used:
[1] = biological target: T1, PD-L1 proteins (Homo sapiens, UniProt Q9NZQ7); test: Surface plasmon resonance (SPR) binding to immobilized PD-L1
T1 construct: purchased R&D systems
T1 sequence (Q9NZQ7 19-290): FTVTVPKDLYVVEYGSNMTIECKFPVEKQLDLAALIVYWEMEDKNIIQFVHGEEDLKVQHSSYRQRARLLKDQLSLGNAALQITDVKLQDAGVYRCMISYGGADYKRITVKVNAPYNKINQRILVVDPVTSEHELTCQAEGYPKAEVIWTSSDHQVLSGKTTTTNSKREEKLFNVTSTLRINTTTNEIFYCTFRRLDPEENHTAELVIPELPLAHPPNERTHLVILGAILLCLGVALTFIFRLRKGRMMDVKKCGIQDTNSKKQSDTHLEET
Description: Surface plasma resonance (SPR). SPR analysis was done using a BIAcore™ X (Pharmacia Biosensor AB, Uppsala, Sweden). In short, PD-L1 proteins (R&D systems) were immobilized onto carboxylated dextran-coated gold film surface of sensor chip (CM5 sensor chip, GE Healthcare) through EDC/NHS chemistry. 30 μL of sample solution was injected at a flow rate of […]. Sample solution was allowed to flow into both channels (channel 1 for reference, channel 2 with PD-L1), and the final SPR sensorgrams were obtained by subtracting the […].

[2] = system: 786-O cells; test: Chemosensitivity assay with doxorubicin in cancer cell/Jurkat T cell co-culture; assay type: cell-based, Human; conditions: 786-O cells co-cultured with Jurkat T cells, then DOX; FIG. 22
Description: (§1) Cell culture. Human renal cell carcinoma (RCC) cell line, 786-O, and breast cancer cell line, MCF-7, were utilized as high- and low-PD-L1 expressing cancer cell models, respectively. The human T lymphocyte cell line, Jurkat, was used in this study as a representative PD-1-expressing immune cells. 786-O and Jurkat T cells were cultured in RPMI media, while MCF-7 cells were grown in DMEM media. All cell culture media were supplemented with 1% (v/v) penicillin/streptomycin (P/S) and 10% (v/v) fetal bovine serum (FBS). Cells were incubated under humidified atmosphere containing 5% CO2 at 37° C.
Chemosensitivity Assay. Chemosensitivity assay was performed by measuring the synergistic cytotoxicity effect of immune checkpoint inhibitors, together with chemotherapeutic drug, doxorubicin. Cancer cells were plated in 96-well plates (5,000 cells/well) and incubated for 48 h. Cancer cells and Jurkat T cells were pre-treated with IFNγ and PHA/PMA as aforementioned. Cancer cells were then stained with calcein AM (1.5 μM), followed by 2 h treatment with ICIS. The cells were co-cultured for another 24 h in a 1:4 ratio, prior to doxorubicin (5 μM) treatment. The effect of each ICI on cancer cell survival following doxorubicin treatment (2 h) was analyzed based on changes in fluorescent intensity.

[3] = system: 786-O cells (a PD-L1 overexpressing cell line); test: Fluorescence microscopy of cell interaction, 786-O cells; assay type: cell-based, Human
Description: as §1

[4] = system: MCF-7 cells (with a low level of PD-L1 expression); test: Fluorescence microscopy of cell interaction, MCF-7 cells; assay type: cell-based, Human; conditions: treated 1 h
Description: as §1

[5] = biological target: fβH2_mt/PD-L1 complex (Homo sapiens, UniProt Q9NZQ7); test: Fluorescence polarization (FP) competition assay; assay type: binding; conditions: 10 nM, PD-L1, 2 μM, FIG. 15
fβH2_mt/PD-L1 complex, sequence (Q9NZQ7 19-239 limits assumed, one chain of several): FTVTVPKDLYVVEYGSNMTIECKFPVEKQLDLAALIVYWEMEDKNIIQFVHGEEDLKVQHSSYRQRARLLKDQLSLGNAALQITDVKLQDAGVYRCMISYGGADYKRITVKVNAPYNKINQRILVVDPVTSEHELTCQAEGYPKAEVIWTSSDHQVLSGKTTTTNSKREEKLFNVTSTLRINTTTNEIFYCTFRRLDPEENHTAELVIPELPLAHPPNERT
Description: Fluorescence polarization (FP) assay. FP assay in PBS was used the PD-L1 binding and competition assays (λex=480 nm; λem=535 nm). Fluorescence anisotropy measurements were performed at room temperature, in a 384-well plate, and using an Infinite® M1000 Pro microplate reader (Tecan). A fβH2_mt/PD-L1 complex was used for the FP competition assay after 30 min incubation time and titrated with the competitors.

Row | Compound | kon ([1]; SPR, read-out: association rate constant (ka)) [M⁻¹ s⁻¹] | PD-L1 affinity relative to βH2_mt ([1]; SPR) | association rate constant (ka) ([1]; SPR) | PD-L1 affinity by SPR sensorgram (comparison in words) ([1]; immobilized PD-L1 proteins, FIG. 4 and 5) | decrease of cell viability compared to cells treated with doxorubicin only [2] [%] | cell interaction (Rhodamine fluorescence) ([3]; 786-O cells, treated 1 h) | PD-L1 selectivity (786-O vs MCF-7 cells) ([3]; fluorescence microscopy, 786-O vs MCF-7) | cell interaction (Rhodamine fluorescence) [4] | displacement of fβH2_mt from PD-L1 / complex integrity [5]
1 | CC(C)[C@H](NC(=O)[C@@H](NC(=O)[C@@H](N)Cc1c[nH]cn1)C(C)C)C(=O)N[C@@H](Cc1c[nH]c2ccccc12)C(=O)N[C@@H](Cc1c[nH]cn1)C(=O)N[C@@H](CCCNC(=N)N)C(=O)N[C@@H](CCC(=O)O)C(=O)N[C@@H](CO)C(=O)N1CCC[C@H]1C(=O)N[C@@H](CO)C(=O)NCC(=O)N[C@@H](CCC(N)=O)C(=O)N[C@H](C(=O)N[C@@H](CC(=O)O)C(=O)N[C@H](C(=O)N[C@@H](CCCCN)C(=O)N[C@@H](C)C(=O)N[C@@H](C)C(N)=O)[C@@H](C)O)[C@@H](C)O [βH2_mt, HVVWHRESPSGQTDTKAA] (H-HVVWHRESPSGQTDTKAA-NH2; N-terminus and C-terminus assumed) | 1070 | – | – | – | – | – | – | – | –
2 | G7-βH2_mt: βH2_mt peptides attached to the surface of generation seven (G7) PAMAM dendrimers, rhodamine labelled; about 30 peptides per dendrimer (HVVWHRESPSGQTDTKAA; also: attached to surface of G7 PAMAM dendrimers, about 30 peptides per dendrimer, rhodamine labelled) | – | five orders of magnitude higher | 2.52×10^5 | higher affinity to immobilized PD-L1 proteins than G7-βH1_mt; also recorded: higher than that of the wildtype βH2-dendrimer conjugate control (G7-βH2_wt) | 8.4±3.8 | strong cell interactions | high PD-L1 selectivity | interacted significantly less | dose-dependent displacement of fβH2_mt from PD-L1; also recorded: more effective competitiveness than aPDL1 antibodies
